Experimental findings from patent publication US9120862 (AbbVie / Abbott, dated 2015) are described below.

B1: monoclonal antibody 3C10 (produced by hybridoma cell line ATCC deposit designation PTA-9638) (antibody, V domains shown)
VH: EVQLVESGGDLVKPGGSLKLSCAASGFTFSSYGMSWVRQTPDKRLEWVATISRGGSSTYYPDSVKGRFTISRDNAKNNLYLQMSSLKSEDTAMYYCASLNYGNFFDYWGQGTTLTVSS
VL: DVVMTQTPLSLPVSLGDQASISCRSSQSLVHSNGNTYLHWYLQKPGQSPKLLIYKVSNRFSGVPDRFSGSGSGTDFTLKISRVEAEDLGVYFCSQNRHVPPTFGGGTKLEIKR

Bridge positions count the residues as written; N and C are the ends. Ends that are not written are not given here.

The target in assay [1] is B1. Description: FCS competition: 2 nM Alexa488-PIVKA-II (13-27) premixed with 10 nM mAb 3C10, analog peptide added, overnight; D of the tracer (high D = tracer displaced).
In assay [2] the target is T1, Alexa-488 labeled PIVKA-II Gla domain peptide (13-27) (human, disulfide 5-10 (inferred); also: labelled with Alexa Fluor 488 TFP ester, site not given here).
T1 construct: also called Alexa488-PIVKA-II (13-27); Alexa488-PIVKA-II peptide (13-27 cyc)
T1 peptide: LERECVEETCSYEEA
Description: fluorescence quenching titration: BHQ-labelled mAb 3C10 titrated against 0.05 nM Alexa488 PIVKA-II peptide (13-27).

As for LERECIEEICDFEEA (disulfide 5-10 (inferred)) [13-27 Gla domain PIVKA Protein C peptide], the “Apparent Diffusion Coefficient (D)” value in assay [1] was found to be 53 um^2/sec.
Same read-out and setting: under LERECMEEKCSFEEA (disulfide 5-10 (inferred)) [13-27 Gla domain PIVKA IX peptide] stands 48 um^2/sec.
Still for that read-out and setting: under LERECIEELCNKEEA (disulfide 5-10 (inferred)) [13-27 Gla domain PIVKA Protein S peptide] stands 50 um^2/sec.
Regarding LEKECYEEICVYEEA (disulfide 5-10 (inferred)) [13-27 Gla domain PIVKA Protein Z peptide], in assay [1], the “Apparent Diffusion Coefficient (D)” value is 51 um^2/sec.
For orientation: EC50 (read off the curve) means the concentration at which the effect is half-maximal. A high value points to a need for much substance. Consider B1, for which, in assay [2], the “EC50 (read off the curve)” value was approximately 0.1 nM.
Take LERECKEEQCSFEEA (disulfide 5-10 (inferred)) [13-27 Gla domain PIVKA Factor VII peptide]: the “Apparent Diffusion Coefficient (D)” value in assay [1] was determined as 49 um^2/sec.
With LERECMEETCSYEEA (disulfide 5-10 (inferred)) [13-27 Gla domain PIVKA Factor X peptide], the “Apparent Diffusion Coefficient (D)” value in assay [1] came out at 52 um^2/sec.
